This is an account of results in PMC6803030 (Inorganic chemistry, 2019).

Common to all, as to test: SEC
In general terms: SEC sorts molecules by how far they enter the pores of the column.

The target in one data set is T1, mS100A9(H105A)(H107A) (murine, UniProt P31725 2-113, H105A | H107A).
T1 sequence (looked up): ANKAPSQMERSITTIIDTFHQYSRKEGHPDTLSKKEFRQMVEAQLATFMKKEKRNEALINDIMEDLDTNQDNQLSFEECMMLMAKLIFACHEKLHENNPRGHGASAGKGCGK

The target in another data set is T2, mS100A9(H103A) (murine, UniProt P31725 2-113, H103A).
T2 sequence (looked up): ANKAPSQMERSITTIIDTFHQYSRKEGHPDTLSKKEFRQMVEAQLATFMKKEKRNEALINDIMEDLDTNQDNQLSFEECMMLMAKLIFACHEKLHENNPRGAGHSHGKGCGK

Another data set deals with T3, mS100A9(H103A)(H105A) (murine, UniProt P31725 2-113, H103A | H105A).
T3 sequence (looked up): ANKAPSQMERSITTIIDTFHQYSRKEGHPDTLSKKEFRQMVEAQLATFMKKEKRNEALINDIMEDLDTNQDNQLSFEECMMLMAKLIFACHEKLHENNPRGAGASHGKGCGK

For the next data set, the target named is T4, mS100A9(H103A)(H107A) (murine, UniProt P31725 2-113, H103A | H107A).
T4 sequence (looked up): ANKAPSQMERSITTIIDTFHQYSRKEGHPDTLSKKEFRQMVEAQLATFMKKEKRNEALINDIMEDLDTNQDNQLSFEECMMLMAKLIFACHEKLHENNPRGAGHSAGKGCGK

Data set [1] deals with T5, mS100A9 (murine S100A9 subunit of calprotectin) (murine, UniProt P31725 1-113).
T5 sequence (looked up): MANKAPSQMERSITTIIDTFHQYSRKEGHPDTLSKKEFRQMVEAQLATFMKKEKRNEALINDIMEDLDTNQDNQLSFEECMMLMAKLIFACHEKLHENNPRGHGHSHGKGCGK

The target of another data set is T6, mS100A9(H105A) (murine, UniProt P31725 2-113, H105A).
T6 sequence (looked up): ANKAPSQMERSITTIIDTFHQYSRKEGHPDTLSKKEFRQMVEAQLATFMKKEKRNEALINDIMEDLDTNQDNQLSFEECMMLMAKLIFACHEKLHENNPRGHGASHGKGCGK

In another data set the target is T7, mS100A9(H107A) (murine, UniProt P31725 2-113, H107A).
T7 sequence (looked up): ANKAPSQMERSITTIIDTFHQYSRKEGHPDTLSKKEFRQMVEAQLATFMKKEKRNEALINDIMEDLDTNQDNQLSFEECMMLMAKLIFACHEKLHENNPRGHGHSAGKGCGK

Data set [2] concerns the molecule itself.
Data set [3] deals with the molecule itself. This is another data set of the same source.

Read-outs that look alike come from different tables or passages of the source.

B1: mS100A8 (murine S100A8 subunit of calprotectin) (natural protein, UniProt P27005 1-89, looked up)
chain: MPSELEKALSNLIDVYHNYSNIQGNHHALYKNDFKKMVTTECPQFVQNINIENLFRELDINSDNAINFEEFLAMVIKVGVASHKDSHKE
For B1, the binding result (with mS100A9(H105A)(H107A); with mS100A9(H103A); with mS100A9(H103A)(H105A); with mS100A9(H103A)(H107A); in data set [1]; with mS100A9(H105A)) was “binds” each time. Besides, in the data set with mS100A9(H107A), the binding result is given as “binds”.

B2: mCP ∆His3Asp variant, mS100A8(H83A)(H87A)/mS100A9(H21A)(D31A) (complex, murine)
chain 1: MPSELEKALSNLIDVYHNYSNIQGNHHALYKNDFKKMVTTECPQFVQNINIENLFRELDINSDNAINFEEFLAMVIKVGVASAKDSAKE
chain 2: ANKAPSQMERSITTIIDTFAQYSRKEGHPATLSKKEFRQMVEAQLATFMKKEKRNEALINDIMEDLDTNQDNQLSFEECMMLMAKLIFACHEKLHENNPRGHGHSHGKGCGK
Turning to B2, the binding result in the data set “SEC [2]” is listed as “binds”.

B3: murine calprotectin (mS100A8/mS100A9 heterodimer) (complex)
chain 1: MPSELEKALSNLIDVYHNYSNIQGNHHALYKNDFKKMVTTECPQFVQNINIENLFRELDINSDNAINFEEFLAMVIKVGVASHKDSHKE
chain 2: MANKAPSQMERSITTIIDTFHQYSRKEGHPDTLSKKEFRQMVEAQLATFMKKEKRNEALINDIMEDLDTNQDNQLSFEECMMLMAKLIFACHEKLHENNPRGHGHSHGKGCGK
With B3, the binding result in the data set “SEC [3]” is recorded as “binds”.

B4: mCP(H105A)(H107A), mS100A8/mS100A9(H105A)(H107A) (complex, murine)
chain 1: MPSELEKALSNLIDVYHNYSNIQGNHHALYKNDFKKMVTTECPQFVQNINIENLFRELDINSDNAINFEEFLAMVIKVGVASHKDSHKE
chain 2: ANKAPSQMERSITTIIDTFHQYSRKEGHPDTLSKKEFRQMVEAQLATFMKKEKRNEALINDIMEDLDTNQDNQLSFEECMMLMAKLIFACHEKLHENNPRGHGASAGKGCGK
Regarding B4, the binding result in “SEC [2]” was “binds”.

B5: mCP(H103A)(H107A), mS100A8/mS100A9(H103A)(H107A) (complex, murine)
chain 1: MPSELEKALSNLIDVYHNYSNIQGNHHALYKNDFKKMVTTECPQFVQNINIENLFRELDINSDNAINFEEFLAMVIKVGVASHKDSHKE
chain 2: ANKAPSQMERSITTIIDTFHQYSRKEGHPDTLSKKEFRQMVEAQLATFMKKEKRNEALINDIMEDLDTNQDNQLSFEECMMLMAKLIFACHEKLHENNPRGAGHSAGKGCGK
In the case of B5, in “SEC [2]”, the binding result is “binds”.

B6: mCP(H105A), mS100A8/mS100A9(H105A) (complex, murine)
chain 1: MPSELEKALSNLIDVYHNYSNIQGNHHALYKNDFKKMVTTECPQFVQNINIENLFRELDINSDNAINFEEFLAMVIKVGVASHKDSHKE
chain 2: ANKAPSQMERSITTIIDTFHQYSRKEGHPDTLSKKEFRQMVEAQLATFMKKEKRNEALINDIMEDLDTNQDNQLSFEECMMLMAKLIFACHEKLHENNPRGHGASHGKGCGK
In the case of B6, the binding result in “SEC [2]” was “binds”.

B7: mCP(H103A), mS100A8/mS100A9(H103A) (complex, murine)
chain 1: MPSELEKALSNLIDVYHNYSNIQGNHHALYKNDFKKMVTTECPQFVQNINIENLFRELDINSDNAINFEEFLAMVIKVGVASHKDSHKE
chain 2: ANKAPSQMERSITTIIDTFHQYSRKEGHPDTLSKKEFRQMVEAQLATFMKKEKRNEALINDIMEDLDTNQDNQLSFEECMMLMAKLIFACHEKLHENNPRGAGHSHGKGCGK
As for B7, in “SEC [2]”, the binding result was “binds”.

B8: mCP(H107A), mS100A8/mS100A9(H107A) (complex, murine)
chain 1: MPSELEKALSNLIDVYHNYSNIQGNHHALYKNDFKKMVTTECPQFVQNINIENLFRELDINSDNAINFEEFLAMVIKVGVASHKDSHKE
chain 2: ANKAPSQMERSITTIIDTFHQYSRKEGHPDTLSKKEFRQMVEAQLATFMKKEKRNEALINDIMEDLDTNQDNQLSFEECMMLMAKLIFACHEKLHENNPRGHGHSAGKGCGK
In the case of B8, the binding result in “SEC [2]” is listed as “binds”.

B9: mCP(H103A)(H105A), mS100A8/mS100A9(H103A)(H105A) (complex, murine)
chain 1: MPSELEKALSNLIDVYHNYSNIQGNHHALYKNDFKKMVTTECPQFVQNINIENLFRELDINSDNAINFEEFLAMVIKVGVASHKDSHKE
chain 2: ANKAPSQMERSITTIIDTFHQYSRKEGHPDTLSKKEFRQMVEAQLATFMKKEKRNEALINDIMEDLDTNQDNQLSFEECMMLMAKLIFACHEKLHENNPRGAGASHGKGCGK
For B9, the binding result in the data set “SEC [2]” is recorded as “binds”.
